Measured values taken from patent publication US20260069656A1, “Nutritive Polypeptides and Formulations Thereof, and Methods of Production and Use Thereof” (Axcella Health Inc., priority 2013, published 2026).

Test: Intact half-life during simulated gastric fluid (SGF) digestion
Settings: SGF pH 1.5, pepsin:polypeptide 1:20 w/w, 37° C.; produced in E. coli unless otherwise noted

Row | Molecule | SGF Half-life (t½) [s]
1 | SEQID-00356: nutritive polypeptide (protein, Glycine max) MATAAEKLSALKSAVAGLNEISENEKNGFISLVGRYLSGEAQHVEWSKIQTPTDEVVVPYDTLAPTPEGSSEVKNLLDKLVVLKLNGGLGTTMGCTGPKSVIEVRDGLTFLDLIVIQIENLNSKYGSNVPLLLMNSFNTHDDTQKIVEKYQNSNIEIHTFNQSQYPRLVVEDFLPLPSKGHTDKDGWYPPGHGDVFPSLLNSGKLDALLSQGKEYVFVANSDNLGAIVDLKILNHLIQNKNEYCMEVTPKTLADVKGGTLISYEGRVQLLEIAQVPDEHVNEFKSIEKFKIFNTNNLWVNLNAVKRLVEADALKMEIIPNPKEVDGIKVLQLETAAGAAIRFFDKAIGINVPRSRFLPVKATSDLLLVQSDLYTLEDGFVIRNKARENPENPSIELGPEFKKVSNFLGRFKSIPSIVELDSLKVAGDVWFGAGVILKGKVSIVSKPGVKLEVPDGVAIVDKEINGPEDL | 12
2 | SEQID-00407 (BS): a-amylase in Bacillus subtilis (amyE); Wild-type of Tables E37A and E38E (protein, listed as Bacillus subtilis, strain 168) ETANKSNELTAPSIKSGTILHAWNWSFNTLKHNMKDIHDAGYTAIQTSPINQVKEGNQGDKSMSNWYWLYQPTSYQIGNRYLGTEQEFKEMCAAAEEYGIKVIVDAVINHTTSDYAAISNEVKSIPNWTHGNTQIKNWSDRWDVTQNSLLGLYDWNTQNTQVQSYLKRFLDRALNDGADGFRFDAAKHIELPDDGSYGSQFWPNITNTSAEFQYGEILQDSASRDAAYANYMDVTASNYGHSIRSALKNRNLGVSNISHYASDVSADKLVTWVESHDTYANDDEESTWMSDDDIRLGWAVIASRSGSTPLFFSRPEGGGNGVRFPGKSQIGDRGSALFEDQAITAVNRFHNVMAGQPEELSNPNGNNQIFMNQRGSHGVVLANAGSSSVSINTATKLPDGRYDNKAGAGSFQVNDGKLTGTINARSVAVLYPDDIAKAPHVFLENYKTGVTHSFNDQLTITLRADANTTKAVYQINNGPETAFKDGDQFTIGKGDPFGKTYTIMLKGTNSDGVTRTEKYSFVKRDPASAKTIGYQNPNHWSQVNAYIYKHDGSRVIELTGSWPGKPMTKNADGIYTLTLPADTDTTNAKVIFNNGSAQVPGQNQPGFDYVLNGLYNDSGLSGSLPH | 12
3 | SEQID-00359: nutritive polypeptide naturally produced in Sheep, recombinantly expressed in E. coli (protein, Arthrospira platensis NIES-39) MLELGSQRNRAKNNHIGDLMSQSFESLGISEQRARHLETLGFTEPTPVQIQAIPEMLSGRDVVGMAQTGTGKTAAFSLPILEQIDVHAAGIQALVLTPTRELAMQVKEAIRTFSDDNALYVLTVYGGQSIDRQIQRLRRGVQVVVGTPGRILDLLNRGELKLDLLRWLVLDEADEMLSMGFIQDVEKILESADSEHRQTAFFSATMDASISKLVRRHLKSPVTVKVETPKATPKRIEQSVYMVPRGWSKARALEPILELEDPESAIIFVRTKQSAADLTNQLQAAGHSVDEYHGNLNQSQRERLLMRLRRRQVRWIVATDIAARGLDVDHLTHVINYDLPDQVDSYVHRIGRTGRAGREGKAITLIQPIDRRKLRNIERHLRQTLSIQSIPKRAEIEARYIDRLKDRVRDALAGERMASFLPIVSQLSEEYDPHAIAAAALQLAYDQTRPASIGRDDYEDDDDAVSNKPKLIKRRRPASVSNNS | 12
4 | SEQID-00354: nutritive polypeptide (protein, Ovis aries) MSLSNKLTLDKLDVKGKRVVMRVDFNVPMKNNQITNNQRIKAAVPSIKYCLDSGAKSVVLMSHLGRPDGVPMPDKYSLQPVAVELKSLLGKDVLFLKDCVGPEVEKACADPAAGSVILLENLRFHVEEEGKGKDASGNKVKAEPTKIEAFRASLSKLGDVYVNDAFGTAHRAHSSMVGVNLPKKAGGFLMKKELNYFAKALESPERPFLAILGGAKVADKIQLISNMLDKVNEMIIGGGMAFTFLKVLNNMEIGTSLFDEEGSKIVKDLMSKADKNGVKITLPVDFVTADKFDENAKTGQATVASGIPVGWMGLDCGPESSKKYAEAVARAKQIVWNGPVGVFEWEAFARGTKALMDEVVKATSRGCITIIGGGDTATCCAKWNTEDKVSHVSTGGGASLELLEGKVLPGVDALSSV | 12
5 | SEQID-00345: nutritive polypeptide (protein, Arthrospira platensis NIES-39) MNTLDLQNQRILVTGGAGFLGKQVIDQLLKAGAKSENISVPRSHNCDLRNLEACQQAAKGQDIIIHLAAHVGGIGLNQVKPAELFYDNLMMGTQLIHSAYQAGVKKFVCVGTICAYPKFTPVPFQEDDLWNGYPEETNAPYGIAKKALLVQLQAYRQQYGFNGIYLLPVNLYGPEDNFNPKSSHVIPALVRKVYEAQQRGDKQLPVWGDGSPSREFLYSTDAARGIVMATQHYDEPDPVNLGTNSEVTIRDLVELICELMEFQGEIVWETDKPNGQPRRCLDTNRAKERFGFVAEVEFRQGLKNTIDWYRQNPDL | 48
6 | SEQID-00346: nutritive polypeptide (protein, Arthrospira platensis NIES-39) MYYDADANLDLLAGKTIAIVGYGSQGHAHALNLKDSGMNVIVGLYPGSKSATKAKDAGLTVYPVDEAAKIADLIMILLPDEVQKTVYKNEIEPNLSEGKTLAFAHGFNIHFGQVVPPENVDVIMVAPKGPGHLVRRTYQEGQGVPCLFAVYQDASGQARDRAMAYAKGIGGTRGGILETTFREETETDLFGEQAVLCGGLSALIKAGFETLVEAGYQPELAYFECLHEVKLIVDLVVEGGLAQMRDSISNTAEYGDYTRGPRVITDATRAEMRKILKEIQTGQFAREFVLENQSGKAGFTAMRRQEAEHPIEEVGHDLRAMFSWLKKKA | 12
7 | SEQID-00284: nutritive polypeptide (protein, listed as Arabidopsis thaliana) KLEHGVHVVSGTPGRVCDMIKRRSLRTRAIKLLILDESDEMLSRGFKDQIYDVYRYLPPDLQVCLVSATLPHEILEMTSKFMTEPVKILVKRDELTLEGIKQFFVAVEKEEWK | 60
8 | SEQID-00343: nutritive polypeptide (protein, Glycine max) MATLIAPSHHSRVEDAEALRNAFKGWGADDKAIIAILGHRNVHQRQEIRKAYEEIYQEDLIKRLESEISGDFERAMYRWMLQPADRDAVLVNVAIKNGTKDYHVIAEIACVLSAEELLAVRRAYHRRYKCSLEEDVAANTTGNLRQLLVGLVTSYRYEGDEINVKFSQTEANVLHESVKEKKGNSEEVIRILTTRSKTQLVATFNRYRDEHGISISKKLLDQTSDDFHKVLHTAIRCINDHKKYYEKVLRNAVKKFGTDEDGLSRVIVTRAEKDLKDIKELYYKRNSVHLEDEVSKETSGDYKKFLLTLLGK | 18
9 | SEQID-00357: nutritive polypeptide (protein, Arthrospira platensis NIES-39) MKPLNRRTKIVATIGPASNSREVLYQMIQAGMNVVRLNFSHGSHEQHTKTVALLKEISQELKTSITLLQDLQGPKIRVGQLPDGGIQLMAGEYITLVPIDQYESKPNTIAIDYLHLGEEAEIGAQVLLDDGLLELKVEEISGNQVKCKIIEGGTLKSRKGVNLPSLTLRLPSLTEKDQQDLEFGISLGVDWVSLSFVRNAEDVRVLKDFLASKNASQISVMAKIEKPQAIANLEEIISECNGLMVARGDLGVEMSPERVPLLQKQIIRLCNQKGIPVITATQMLDSMINNPRPTRAEASDVANAIIDGTDAVMLSGESAVGKYPIRAVEMLAKIAEDVEPEINFINYPPAFNDETHAISEAINTIDKIIDLHCIIAYTCSGYTGQLAAAERPKAPVVALTPNPKVYHRLNLVWGVKPLLLEQEVESFEELINQAQTYLLVRQMASPGDKILIIGGIPSGKAKGTNFIKIHTIG | 12
10 | SEQID-00298 (AN): nutritive polypeptide naturally produced in Cow (protein, listed as Bos taurus) MGLSDGEWQLVLNAWGKVEADVAGHGQEVLIRLFTGHPETLEKFDKFKHLKTEAEMKASEDLKKHGNTVLTALGGILKKKGHHEAEVKHLAESHANKHKIPVKYLEFISDAIIHVLHAKHPSDFGADAQAAMSKALELFRNDMAAQYKVLGFHG | 18
11 | SEQID-00298 (BS): nutritive polypeptide naturally produced in Cow (protein, listed as Bos taurus) MGLSDGEWQLVLNAWGKVEADVAGHGQEVLIRLFTGHPETLEKFDKFKHLKTEAEMKASEDLKKHGNTVLTALGGILKKKGHHEAEVKHLAESHANKHKIPVKYLEFISDAIIHVLHAKHPSDFGADAQAAMSKALELFRNDMAAQYKVLGFHG | 6
12 | SEQID-00338 (BS): nutritive polypeptide (protein, listed as Saccharomyces cerevisiae, strain ATCC 204508 / S288c) MSSSESIRMVLIGPPGAGKGTQAPNLQERFHAAHLATGDMLRSQIAKGTQLGLEAKKIMDQGGLVSDDIMVNMIKDELTNNPACKNGFILDGFPRTIPQAEKLDQMLKEQGTPLEKAIELKVDDELLVARITGRLIHPASGRSYHKIFNPPKEDMKDDVTGEALVQRSDDNADALKKRLAAYHAQTEPIVDFYKKTGIWAGVDASQPPATVWADILNKLGKD | 12
13 | SEQID-00363 (E. coli): nutritive polypeptide (protein, Aspergillus niger) ATLDSWLSNEATVARTAILNNIGADGAWVSGADSGIVVASPSTDNPDYFYTWTRDSGLVLKTLVDLFRNGDTSLLSTIENYISAQAIVQGISNPSGDLSSGAGLGEPKFNVDETAYTGSWGRPQRDGPALRATAMIGFGQWLLDNGYTSTATDIVWPLVRNDLSYVAQYWNQTGYDLWEEVNGSSFFTIAVQHRALVEGSAFATAVGSSCSWCDSQAPEILCYLQSFWTGSFILANFDSSRSGKDANTLLGSIHTFDPEAACDDSTFQPCSPRALANHKEVVDSFRSIYTLNDGLSDSEAVAVGRYPEDTYYNGNPWFLCTLAAAEQLYDALYQWDKQGSLEVTDVSLDFFKALYSDAATGTYSSSSSTYSSIVDAVKTFADGFVSIVETHAASNGSMSEQYDKSDGEQLSARDLTWSYAALLTANNRRNSVVPASWGETSASSVPGTCAATSAIGTYSSVTVTSWPSIVATGGTTTTATPTGSGSVTSTSKTTATASKTSTSTSSTSCTTPTAVAVTFDLTATTTYGENIYLVGSISQLGDWETSDGIALSADKYTSSDPLWYVTVTLPAGESFEYKFIRIESDDSVEWESDPNREYTVPQACGTSTATVTDTWR | <600
